Results from PMC4014126 (2014).

Biological target: NF-κB activator 1 (Act1) (UniProt Q8N7N6)
Assay: co-immunoprecipitation (anti-Myc IP, Western blot, ImageJ densitometry)
Details: IL-17RA-deficient MEFs reconstituted by retroviral infection; treated with IL-17 for 10 min; parent: 100

Sequence of NF-κB activator 1 (Act1) (Q8N7N6 whole entry): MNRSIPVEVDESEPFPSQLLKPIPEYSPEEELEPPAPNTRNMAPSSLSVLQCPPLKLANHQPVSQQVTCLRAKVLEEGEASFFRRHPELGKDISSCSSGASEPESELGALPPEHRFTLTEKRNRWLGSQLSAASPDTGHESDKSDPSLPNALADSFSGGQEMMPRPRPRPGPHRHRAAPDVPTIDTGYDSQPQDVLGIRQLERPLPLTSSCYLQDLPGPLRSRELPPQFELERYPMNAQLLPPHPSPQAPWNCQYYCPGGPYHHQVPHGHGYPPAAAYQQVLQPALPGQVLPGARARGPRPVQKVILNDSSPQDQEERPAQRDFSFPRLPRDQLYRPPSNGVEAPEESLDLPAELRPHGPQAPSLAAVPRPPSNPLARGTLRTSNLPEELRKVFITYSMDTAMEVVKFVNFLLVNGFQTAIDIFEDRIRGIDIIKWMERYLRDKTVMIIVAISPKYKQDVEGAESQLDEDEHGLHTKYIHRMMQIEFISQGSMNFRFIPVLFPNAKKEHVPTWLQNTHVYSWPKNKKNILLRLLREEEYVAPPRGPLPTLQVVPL
Sequence of Myc-tagged mouse IL-17RA (Q60943 32-864, stated change not applied): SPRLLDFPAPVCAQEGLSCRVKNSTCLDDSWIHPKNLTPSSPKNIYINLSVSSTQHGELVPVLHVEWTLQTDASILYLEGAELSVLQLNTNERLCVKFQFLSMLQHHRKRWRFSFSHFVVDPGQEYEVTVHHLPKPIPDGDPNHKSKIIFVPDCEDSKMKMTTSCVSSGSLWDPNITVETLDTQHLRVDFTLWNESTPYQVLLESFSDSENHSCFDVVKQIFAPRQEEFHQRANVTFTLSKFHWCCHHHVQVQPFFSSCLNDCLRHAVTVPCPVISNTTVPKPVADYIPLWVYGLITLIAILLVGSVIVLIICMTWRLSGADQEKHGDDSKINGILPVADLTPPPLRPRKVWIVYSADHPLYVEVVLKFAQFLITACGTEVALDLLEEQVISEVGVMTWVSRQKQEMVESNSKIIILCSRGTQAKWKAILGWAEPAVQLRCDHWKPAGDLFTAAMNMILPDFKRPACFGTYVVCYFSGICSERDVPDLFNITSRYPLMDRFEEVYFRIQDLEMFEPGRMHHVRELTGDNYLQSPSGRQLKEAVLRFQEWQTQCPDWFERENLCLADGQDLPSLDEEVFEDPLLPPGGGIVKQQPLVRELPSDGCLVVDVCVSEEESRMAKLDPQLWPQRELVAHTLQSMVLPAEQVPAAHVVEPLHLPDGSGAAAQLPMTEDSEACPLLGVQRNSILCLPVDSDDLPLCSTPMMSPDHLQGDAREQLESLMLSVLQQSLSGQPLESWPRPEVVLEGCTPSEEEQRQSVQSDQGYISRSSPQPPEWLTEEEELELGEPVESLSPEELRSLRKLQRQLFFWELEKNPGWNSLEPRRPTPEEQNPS

percent of parent: 31
Substance: Myc-tagged mouse IL-17RA (from UniProt Q60943) T483A; N488A; M489A
